# Test results published in paper PMC8152475 (Biomedicines, 2021).
# T1: unlabeled recombinant TBK1 (UniProt Q9UHD2 1-729)
# T1 sequence (looked up): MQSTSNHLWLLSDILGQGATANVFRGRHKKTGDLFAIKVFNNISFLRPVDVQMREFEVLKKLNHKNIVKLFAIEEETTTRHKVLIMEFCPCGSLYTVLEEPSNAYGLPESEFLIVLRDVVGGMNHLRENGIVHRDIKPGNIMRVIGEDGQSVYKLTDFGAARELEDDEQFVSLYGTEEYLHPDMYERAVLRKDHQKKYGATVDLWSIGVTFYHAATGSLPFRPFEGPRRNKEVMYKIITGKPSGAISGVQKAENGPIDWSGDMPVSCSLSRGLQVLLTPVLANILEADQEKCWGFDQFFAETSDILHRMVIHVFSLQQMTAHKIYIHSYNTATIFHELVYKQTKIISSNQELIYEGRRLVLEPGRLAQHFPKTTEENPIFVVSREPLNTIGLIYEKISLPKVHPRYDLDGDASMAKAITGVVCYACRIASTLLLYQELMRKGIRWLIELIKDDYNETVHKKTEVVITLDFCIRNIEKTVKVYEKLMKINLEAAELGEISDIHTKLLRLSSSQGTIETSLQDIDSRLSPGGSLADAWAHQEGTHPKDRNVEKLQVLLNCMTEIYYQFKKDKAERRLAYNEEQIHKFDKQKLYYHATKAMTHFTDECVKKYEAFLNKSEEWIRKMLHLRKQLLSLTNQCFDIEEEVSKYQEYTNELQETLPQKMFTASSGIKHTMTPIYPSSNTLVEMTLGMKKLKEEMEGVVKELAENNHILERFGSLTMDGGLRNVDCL
# T2: unlabeled recombinant HK2 (UniProt P52789 1-917)
# T2 sequence (looked up): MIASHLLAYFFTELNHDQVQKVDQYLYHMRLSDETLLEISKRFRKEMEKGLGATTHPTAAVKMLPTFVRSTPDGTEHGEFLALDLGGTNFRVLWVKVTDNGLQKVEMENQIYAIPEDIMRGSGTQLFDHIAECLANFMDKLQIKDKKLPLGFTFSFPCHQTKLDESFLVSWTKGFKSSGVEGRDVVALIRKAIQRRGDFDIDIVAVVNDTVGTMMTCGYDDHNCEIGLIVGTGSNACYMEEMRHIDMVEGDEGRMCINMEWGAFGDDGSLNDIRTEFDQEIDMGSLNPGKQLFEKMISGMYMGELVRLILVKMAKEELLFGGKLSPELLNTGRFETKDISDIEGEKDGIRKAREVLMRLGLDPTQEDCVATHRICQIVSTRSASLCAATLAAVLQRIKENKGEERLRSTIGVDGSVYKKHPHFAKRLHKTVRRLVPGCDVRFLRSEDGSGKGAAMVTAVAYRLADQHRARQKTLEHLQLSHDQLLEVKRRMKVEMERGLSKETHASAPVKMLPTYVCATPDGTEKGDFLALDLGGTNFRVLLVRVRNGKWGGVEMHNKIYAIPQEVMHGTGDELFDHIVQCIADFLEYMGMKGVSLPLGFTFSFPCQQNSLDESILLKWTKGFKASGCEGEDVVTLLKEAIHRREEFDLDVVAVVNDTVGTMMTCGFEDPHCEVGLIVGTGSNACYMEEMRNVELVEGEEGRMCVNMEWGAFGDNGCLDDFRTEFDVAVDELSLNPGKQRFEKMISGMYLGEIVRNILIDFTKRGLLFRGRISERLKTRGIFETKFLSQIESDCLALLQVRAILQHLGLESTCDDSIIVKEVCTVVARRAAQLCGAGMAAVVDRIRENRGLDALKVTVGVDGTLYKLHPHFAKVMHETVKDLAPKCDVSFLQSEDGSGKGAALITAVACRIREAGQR
# T3: unlabeled recombinant p47phox (UniProt P14598 1-390)
# T3 sequence (looked up): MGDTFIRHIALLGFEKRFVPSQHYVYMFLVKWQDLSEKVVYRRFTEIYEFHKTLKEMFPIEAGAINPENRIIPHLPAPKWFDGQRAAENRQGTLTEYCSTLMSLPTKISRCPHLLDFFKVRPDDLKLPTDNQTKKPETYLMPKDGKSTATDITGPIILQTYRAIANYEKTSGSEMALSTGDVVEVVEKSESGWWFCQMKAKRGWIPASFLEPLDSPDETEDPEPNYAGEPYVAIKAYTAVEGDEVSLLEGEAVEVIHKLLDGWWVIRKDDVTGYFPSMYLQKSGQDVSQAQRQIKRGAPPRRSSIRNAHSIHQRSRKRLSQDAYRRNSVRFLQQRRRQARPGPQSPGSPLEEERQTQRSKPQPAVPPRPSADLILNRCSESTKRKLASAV
# T4: TBK1 (Homo sapiens, UniProt Q9UHD2)
# T4 sequence (Q9UHD2 1-729): T1 sequence (looked up)
# B1: fluorescently labelled MPT64 (natural protein)
# chain: APKTYCEELKGTDTGQACQIQMSDPAYNINISLPSYYPDQKSLENYIAQTRDKFLSAATSSTPREAPYELNITSATYQSAIPPRGTQAVVLKVYQNAGGTHPTTTYKAFDWDQAYRKPITYDTLWQADTDPLPVVFPIVQGELSKQTGQQVSIAPNAGLDPVNYQNFAVTNDGVIFFFNPGELLPEAAGPTQVLVPRSAIDSMLA
# B2: rMPT64: recombinant MPT64, produced in a bacterially expressed system as MPT63 (protein)
# chain: B1 chain
# B3: fluorescently labelled MPT63 (natural protein)
# chain: AYPITGKLGSELTMTDTVGQVVLGWKVSDLKSSTAVIPGYPVAGQVWEATATVNAIRGSVTPAVSQFNARTADGINYRVLWQAAGPDTISGATIPQGEQSTGKIYFDVTGPSPTIVAMNNGMEDLLIWEP
# B4: rMPT63: recombinant MPT63, purified using a 6x His bacterially expressed system (protein)
# chain: B3 chain
# B5: MPT63: secretory immunodominant antigen of MTB (protein)
# chain: B3 chain
# How the values were obtained:
# [1] = molecular target: T1, unlabeled recombinant TBK1; test: other fluorescence titration; details: both partners purified
# [2] = molecular target: T2, unlabeled recombinant HK2; test: other fluorescence titration; details: both partners purified
# [3] = tested on: host proteins in THP-1 macrophage cell lysates; test: Co-immunoprecipitation from THP-1 cell lysates with mass spectrometry identification of binding partners; parameters: species or system human
# TBK1 [4] = test: Endogenous co-immunoprecipitation with TBK1 in THP-1 cells; type: binding, human; details: 5 μg mL^−1, IP with αHis-agarose bead
# Protocol: (§1) Figure 1 TBK1 and p47phox is bound with MPT63. (A) Identification of TBK1 and p47phox by mass spectrometry analysis in THP-1 cell lysates treated with rMPT63 or rVector. (B) THP-1 cells were stimulated with rMPT63 (5 μg mL^−1) for the indicated times, followed by immunoprecipitation (IP) with αHis-agarose bead and IB with αTBK1, αP-TBK1 (S172), αp47phox, αP-p47phox (S304, 345, 359, and 370), αHis, αActin. […] (E,G) Binding mapping. Schematic diagrams of the structures of MPT63 (upper). At 48 h after transfection with mammalian glutathione S-transferase (GST) or GST-MPT63 and truncated mutant constructs together with Flag-TBK1 or V5-p47phox. 293T cells were used for GST pull down, followed by IB with αFlag or αV5. Cell lysates (WCLs) were used for IB with αFlag or αV5, αGST, and αActin. […]
# (§2) Antibody binding was visualized by chemiluminescence (ECL; Millipore) and detected by a Vilber chemiluminescence analyzer (Fusion SL 3; Vilber Lourmat).
# (§3) Confocal fluorescence microscopy
# (§4) Immunofluorescence analysis was performed as described previously (Koh et al, 2017). […] TRAF6 or His was detected using a 1/100 dilution of the primary Ab for 1 h at 25 °C. […]
# (§5) Cell viability relative to non-treated group was measured by MTT assay, as […]
# [5] = molecular target: T3, unlabeled recombinant p47phox; test: other fluorescence titration; details: both partners purified
# p47phox [6] = test: Endogenous co-immunoprecipitation with p47phox in THP-1 cells; type: binding, human; details: rMPT63 5 μg mL^−1, IP with αHis-agarose bead
# Protocol: as §1, §2, §3, §4, §5
# TBK1 [7] = molecular target: T4, TBK1; type: binding
# p47phox [8] = type: binding
# macrophages = details: conformational switch dependent on the pH of the host; ref [8]; cited from earlier work
# [9] = tested on: murine peritoneal macrophages; details: TNF-α and IL-6 secretion, ref [9]; cited from earlier work
# [10] = tested on: HLA-DR, an MHC class II cell surface receptor; details: MPT63 and its epitope; ref [44]; cited from earlier work
# Th1 cell = details: MPT63 and its epitope; ref [44]; cited from earlier work
molecule,measurement,setting,value
B1,Kd,[1],193 nM
same,Kd,[2],134 nM
B2,binding partners identified by mass spectrometry,[3],"interacted with several host proteins, including hexokinase 2 (HK2, 102K), TBK1 (83K), protein kinase Cα (PKCα, 76K), TNF receptor associated factor 6 (TRAF6, 60K), and p38MAPK (38K)"
same,endogenous interaction with TBK1 and phosphorylated form,TBK1 [4],phosphorylated TBK1 (S172) also interacted with rMPT64
B3,Kd,[1],178 nM
same,Kd,[5],345 nM
B4,binding partners identified by mass spectrometry,[3],"included TANK-binding kinase (TBK1, 83K), receptor-interacting serine/threonine-protein kinase 1 (RIP1, 75K), RAC-alpha serine/threonine-protein kinase (AKT, 55K), Neutrophil cytosol factor 1 (p47phox, 45K), and p38 mitogen-activated protein kinase (p38MAPK, 38K)"
same,endogenous interaction with TBK1 and phosphorylated form,TBK1 [4],"interacted with TBK1 and p47phox and, interestingly, with their phosphorylated forms as well"
same,endogenous interaction with p47phox and phosphorylated forms,p47phox [6],"interacted with TBK1 and p47phox and, interestingly, with their phosphorylated forms as well (S345 and S359)"
B5,region of MPT protein binding TBK1,TBK1 [7],"the N-terminal of MPT63 bound with TBK1 and 48–56 peptide was essential for the interaction between MPT63 and TBK1. Specifically, 50–56 amino acids, except G53, seemed to be fundamental for binding"
same,region of MPT63 binding p47phox,p47phox [8],"The C-terminal of MPT63 was associated with p47phox, particularly the 150–159 amino acids in the C-terminal domain of MPT63 were important for binding with p47phox. Additionally, E152, D153, and E158 in MPT63 were key amino acids"
same,macrophage cell death,macrophages,induced cell death of macrophages
same,phagocytic activity,[9],enhanced the phagocytic activity by upregulating the secretion of TNF-α and IL-6
same,binding to HLA-DR,[10],bind promiscuously to HLA-DR
same,Th1 cell reactivity,Th1 cell,induce a moderate Th1 cell reactivity
